Measurements published in patent publication US20250195556A1, “COMPOSITIONS, KITS, AND METHODS TO INDUCE ACQUIRED CYTORESISTANCE USING STRESS PROTEIN INDUCERS” (FRED HUTCHINSON CANCER RESEARCH CENTER, priority 2014, published 2025).
Values joined by “and” are separate entries in the source; they are usually repeats but may differ in a detail not shown here. Equal entries are not always repeated.

Experiments:
[1] = test system: HO-1; test: Renal cortical HO-1 mRNA (RT-PCR) and protein (ELISA) after IV myoglobin, SnPP or both (Example 1); type: in vivo, mice
Source text: The Glycerol Model of AKI. This is a widely used model of rhabdomyolysis-induced AKI that has been employed worldwide for 50 years. The model was used to test whether prophylactic interventions confer protection against AKI. Basically, the protocol is as follows: Male CD-1 mice (35-45 grams), obtained from Charles River Laboratories, Wilmington, M A were studied. Mice were maintained under standard vivarium conditions and generally housed for 1-3 weeks prior to study. The mice were placed in a cylindrical restraining cage, and then were given a tail vein injection of the test substances (see below) or test substance vehicle. The mice were then returned to their cages. Eighteen hours (hrs) later, the mice were briefly anesthetized by isoflurane inhalation, and given an intramuscular injection of hypertonic (50%) glycerol in a dose of 9 ml/Kg body weight. The dose is divided in two, with half injected into the muscle of each of the hind limbs. The mice were then returned to their cages. Eighteen hrs later, the mice were deeply anesthetized with pentobarbital (50-100 mg/Kg), the abdominal cavity was opened through a midline abdominal incision, a blood sample was obtained from the abdominal vena cava and the kidneys were resected. A kidney cross section was obtained and fixed in formalin for subsequent histologic analysis. The terminal blood samples were analyzed for BUN and creatinine, using commercially available assay kits. The remaining kidney tissue was subjected to cortical dissection, and the cortical tissues were then extracted for protein and RNA. The protein samples were saved for analysis of HO-1 levels, and the RNA samples were subjected to RT-PCR to quantify HO-1 mRNA as well as levels of other stress gene mRNAs (e.g. NGAL, haptoglobin, hemopexin, hepicidin).
Myoglobin+SnPP: To 5 mg of dry myoglobin was added 0.9 ml of PBS+0.1 ml of a stock SnPP solution (50 umole/ml). The resulting final concentrations were 5 mg/ml myoglobin+5 umoles/ml of SnPP. The tail vein was injected with 200 μl of this solution, which equals 1 mg myoglobin+1 umole SnPP. […]
Four hr post myoglobin vs myoglobin+SnPP vs SnPP alone experiments. To confirm that the myoglobin+SnPP has a synergistic effect in inducing HO-1 mRNA and HO-1 protein levels, each of the above combinations have been administered alone via tail vein injection. Four hrs later, the mice were sacrificed as noted above and the kidneys were harvested for assessment of HO-1 mRNA and protein levels. For additional information regarding methods, see Zager et al., Am J Physiol Renal Physiol. 2014 Jul. 30. Pii.

[2] = Plasma LDH 4 hr after IV test agents (marker of liver, kidney, lung and heart injury); type: in vivo, mice; settings: 4 hr IV
[3] = test system: HK-2 cells; test: Myoglobin toxicity in HK-2 cells, MTT assay; type: cell-based; settings: 10 mg/mL, 18 hr incubation, vs control incubated cells
Experimental: Example 3. […] HK-2 cells (a proximal tubule cell line derived from normal human kidney) were incubated in keratinocyte serum free medium either under normal (control) conditions or in the presence of 10 mg/mL horse skeletal muscle myoglobin or nitrited myoglobin (produced by equimolar Na nitrite addition to 10 mg/ml myoglobin). After 18 hr incubations, the severity of cell injury (% cell death) was assessed by MTT assay. Myoglobin induced 40% cell death (40% decrease in MTT cell uptake), compared to control incubated cells. Nitrite binding to myoglobin reduced cell death by 75%. Thus, nitrite binding is able to reduce myoglobin's cytotoxic effects.

[4] = test system: HO-1; test: Renal cortical HO-1 mRNA (RT-PCR) and protein (ELISA) after IV myoglobin, SnPP or both (Example 1); type: in vivo, mice; settings: 1 mg myoglobin, 1 μmole SnPP
[5] = test system: haptoglobin; test: Haptoglobin protein expression after SQ injection of myoglobin or myoglobin + PEG; type: in vivo, mice; settings: 4 hour time point after SQ injection; control 9.5
Experimental: Myoglobin+PEG: To a stock solution of 20 mg/ml Mgb in PBS was added 100 mg/ml of PEG-6000; 250 ul. This was administered as a subcutaneous injection in the dorsal neck (250 ul total injection). For combined Mgb/PEG+SnPP, SnPP was added to the above in a concentration of 3 mg/ml.

B1: Myoglobin: Lyophilized horse skeletal muscle (myoglobin) (Sigma Chemicals) used as the test agent (protein, listed as Homo sapiens)
chain: MGLSDGEWQLVLNVWGKVEADIPGHGQEVLIRLFKGHPETLEKFDKFKHLKSEDEMKASEDLKKHGATVLTALGGILKKKGHHEAEIKPLAQSHATKHKIPVKYLEFISECIIQVLQSKHPGDFGADAQGAMNKALELFRKDMASNYKELGFQG
HO-1 protein expression (by ELISA), Average ([1]; cortex, 4 hr IV, 1 mg myoglobin, 1 μmole SnPP, PBS 13.5, carrier 21.5): 45.4 ng HO-1/mg protein
HO-1 protein expression (by ELISA) ([1]; cortex, 4 hr IV, 1 mg myoglobin, 1 μmole SnPP, individual mice): 40.7 ng HO-1/mg protein and 40.2 ng HO-1/mg protein and 64.7 ng HO-1/mg protein and 36.0 ng HO-1/mg protein
HO-1/GAPDH mRNA, Average ([1]; kidney, 4 hr post IV injection, control average 1.93): 3.93
HO-1/GAPDH mRNA ([1]; kidney, 4 hr post IV injection, individual mice): 7.78 and 2.93 and 2.58 and 2.41
Plasma LDH, Average ([2]; carrier 4.43): 4.47 Absorbance U LDH/ml
Plasma LDH ([2]; individual subjects): 4.54 Absorbance U LDH/ml (2×) and 3.90 Absorbance U LDH/ml and 4.91 Absorbance U LDH/ml
Cell death (decrease in MTT cell uptake) [3]: 40%
HO-1 mRNA induction (HO-1/GAPDH mRNA) ([4]; overnight (roughly 18 hrs) post IV, individual subjects): 0.71 and 0.53 and 0.51
HO-1 protein induction ([4]; overnight (roughly 18 hrs) post IV, individual subjects, in ng/mg protein): 50.6 and 34.9 and 24.6
HO-1 mRNA induction (HO-1/GAPDH mRNA), Average ([4]; overnight post IV, control 0.46): 0.58
HO-1 protein induction, Average ([4]; overnight post IV, control 20.5): 36.7
Haptoglobin protein expression [5]: 32.7 ± 6.3 ng/mg protein
